Assay results from the supplement of paper PMC12042874.
± gives the uncertainty stated by the source.

Experiments:
[1] = amyloid nucleation score (Sup35N fusion, yeast selection) (log enrichment); library NNK1; higher = more nucleation; inactive = no reads after selection
In short: (§1)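 For the nucleation score, DiMSum gave the log enrichment of output over input reads, centred on the mode score of non-aggregating sequences. Psi-negative yeast expressing Sup35N fused to peptides of 20 random codons were induced with 100 μM copper sulfate for 24 hours and grown 7 days at 30°C on medium lacking adenine and uracil. Input and output plasmid inserts were Illumina-sequenced, and sequences with under 100 input reads were excluded.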

[2] = amyloid nucleation score (Sup35N fusion, yeast selection) (log enrichment); library NNK2; higher = more nucleation; inactive = no reads after selection
In short: as §1

[3] = amyloid nucleation score (Sup35N fusion, yeast selection) (log enrichment); library NNK3; higher = more nucleation; inactive = no reads after selection
In short: as §1

| Substance | amyloid nucleation score [1] | amyloid nucleation score [2] | also measured |
| --- | --- | --- | --- |
| AAGHVAVAIRNRVVIARSRT | 3.4 ± 0.11 | – | – |
| AAMCLLIWRACRISVDMHMC | -0.205 ± 0.27 | – | – |
| AANCTMMFKKPSWNVTRERV | 0.26 ± 0.34 | – | – |
| AARRLNELSSELKWMCSATD | -0.077 ± 0.4 | – | – |
| AAVMCAIDLIGLNFGLGNWK | 7.816 ± 0.052 | – | – |
| ACARTTDIFV | -1 ± 1.1 | – | – |
| ACDTS | 0.693 ± 0.45 | – | – |
| ACPVGTRFTVATTFRRMLCE | 0.312 ± 0.47 | – | – |
| ACWYLKRFLIMGKLSWS | -0.15 ± 0.3 | – | – |
| ADARVQGLSRLWGSGFNRLP | 0.53 ± 0.51 | – | – |
| ADCFCNRFNVICVKHYGSAR | 0.159 ± 0.42 | – | – |
| ADDACVSET | inactive | – | – |
| ADDGCSRNVCQTLYMSFLVN | -0.072 ± 0.35 | – | – |
| ADDVCSCQGFLYRDVFCATD | 0.531 ± 0.93 | – | – |
| ADIPCQNCVSYVRYFGLNVI | -0.094 ± 0.48 | – | – |
| ADLSISRWCLCGRNALGLFF | 5.12 ± 0.07 | – | – |
| ADSFSI | -0.118 ± 0.44 | – | – |
| ADTCGCGWDSRRKCFMGGYS | -0.187 ± 0.52 | – | – |
| AEHYPGIVVCLSLCDS | -1.77 ± 2.4 | – | – |
| AELSITASTNMESNLVNSIR | -1.69 ± 2.7 | – | – |
| AESLIKHLK | 0.334 ± 0.43 | – | – |
| AFAFEYCRTSRIFCQGMEWQ | 1.05 ± 0.6 | – | – |
| AFCSAAVQAEICEWCNSIYA | -0.431 ± 0.64 | – | – |
| AFDGVS | -0.096 ± 1.7 | – | – |
| AFDLTEVQFLRVVKS | -0.259 ± 0.44 | – | – |
| AFFSAKIKAPFNDVFGYGFV | 0.289 ± 0.33 | – | – |

| Substance | amyloid nucleation score [1] | amyloid nucleation score [2] | also measured |
| --- | --- | --- | --- |
| AFFYYIEQDSYTVRSIMI | -0.294 ± 0.42 | – | – |
| AFLIIMSGSGNCICLRSLVS | -0.385 ± 0.3 | – | – |
| AFMDKLMSPGEVIEVAL | 1.29 ± 0.84 | – | – |
| AFMYYTGATIMHLQSANGGL | 2.27 ± 0.17 | – | – |
| AFPPYRIFADRLYMSSPGPA | 0.961 ± 0.69 | – | – |
| AFRFHQHMACREL | 4.36 ± 0.055 | – | – |
| AFSANF | 0.779 ± 0.42 | – | – |
| AFVIFVYNKSIAQIWHFRGY | -0.797 ± 0.37 | – | – |
| AFVTSRPYWGNSVVEAHLVG | 1.69 ± 0.19 | – | – |
| AGCDNMIYMSTWVKWESN | 0.197 ± 0.31 | – | – |
| AGFSTHSSGCVGECVGQRT | 0.32 ± 0.69 | – | – |
| AGHSCQSTMTGCYTFHSYVW | -0.102 ± 0.49 | – | – |
| AGKCIVQYKGLKNVR | 0.91 ± 0.75 | – | – |
| AGLRVYKIKSFRLEDSVNAG | 1.49 ± 0.71 | – | – |
| AGLWYNWRECSFHRVVVGYP | 0.737 ± 0.55 | – | – |
| AGMCSIC | 0.155 ± 0.36 | – | – |
| AGRMEGYESEGPPGHA | 0.187 ± 0.39 | – | – |
| AGRRKSRSAVQREP | 0.528 ± 0.88 | – | – |
| AGSDGQGDGEQWRNHLRPIA | -0.294 ± 0.64 | – | – |
| AGSEVFEK | 0.073 ± 0.32 | – | – |
| AGWYASW | 0.142 ± 0.74 | – | – |
| AGYAYSGIVAGAYWIFCNYE | 1.12 ± 0.85 | – | – |
| AHTSYYTMSTSRTADGVKIS | 0.028 ± 0.31 | – | – |
| AHYRV | 0.014 ± 0.48 | – | – |
| AIEPHDGFWGVWSTLGVILI | 1.32 ± 0.93 | – | – |
| AIFFGGIGKVCVKLVLCVRL | 0.248 ± 0.27 | – | – |

| Substance | amyloid nucleation score [1] | amyloid nucleation score [2] | also measured |
| --- | --- | --- | --- |
| AIFKSITDPVLWSGLF | 0.562 ± 0.97 | – | – |
| AIFNTGNMWDTLRRHSGVHV | -0.059 ± 1.2 | – | – |
| AINLRLV | 0.23 ± 0.36 | – | – |
| AIPGGVTGTGWSSM | -0.221 ± 0.51 | – | – |
| AISDFMGHS | -0.825 ± 1.1 | – | – |
| AIYVNGCVCCISYLVPILMS | 3.61 ± 0.075 | – | – |
| AKMRMNNSFFFTVNWVLMNW | -0.461 ± 0.4 | – | – |
| AKSELHYSRFYFTLGVMKSL | -0.138 ± 0.48 | – | – |
| AKSVYILVR | inactive | – | – |
| AKVRKNYTFLHLSPLGRGFD | 0.321 ± 0.48 | – | – |
| NVFSS | – | -0.42 ± 0.35 | amyloid nucleation score [3]: inactive |
| YRGQLARCDILHSWQTVCSM | – | -0.337 ± 0.49 | – |
| YRLAFKMRNHGYQVELGLSV | – | -0.088 ± 1.1 | – |
| YRLVHNSKREPGWRSCEWDH | – | 0.046 ± 0.63 | – |
| YRRSPFETSGLQSCYCGSIG | – | -0.003 ± 1.1 | – |
| YRSIC | – | -1.63 ± 0.75 | – |
| YRTPYFIAIQDQRYCLVSLG | – | -0.87 ± 0.45 | – |
| YRVNALKQIMLRLKQFCRLA | – | -0.647 ± 0.64 | – |
| YRVYLVFYDFVFVFYMSKYL | – | inactive | – |
| YRYCSCMNLAWERFGNPEGQ | – | -0.399 ± 0.46 | – |
| YSAPCGGDGESWDGFKMMEH | – | 0.053 ± 1.1 | – |
| YSEQNKWSRFVTDGGNLV | – | -0.802 ± 0.61 | – |
| YSFFCSMILYPIHDNVGWSF | – | 4.86 ± 0.088 | – |
| YSFLWSVTATFDVTIISGCA | – | 3.1 ± 0.05 | – |
| YSFNALRRY | – | 0.632 ± 0.25 | – |
| YSFRGWSSSVWVTGWCGRSA | – | 0.45 ± 0.62 | – |

| Substance | amyloid nucleation score [1] | amyloid nucleation score [2] | also measured |
| --- | --- | --- | --- |
| YSFVCIRIGPLKEVCKLNSC | – | -0.774 ± 1.1 | – |
| YSIKQAY | – | inactive | – |
| YSISQLWYTLTIHVPFHPLK | – | -0.114 ± 0.15 | – |
| YSLLNVSHVVFTSA | – | -0.71 ± 0.61 | – |
| YSRFYLYMSRRGMRS | – | -0.122 ± 0.53 | – |
| YSRWRSLCTGAAFPGFWLNT | – | 1.96 ± 0.14 | – |
| YSSCLCLQCTRMQTPMVQFL | – | 0.032 ± 0.53 | – |
| YSSFDISLYFGNHHWSLMTR | – | 4.11 ± 0.078 | – |
| YSSSKNTVVMSAKSMVRLRT | – | 0.52 ± 0.56 | – |
| YSTTDHKWSRNLGIIMVVMW | – | 0.185 ± 0.48 | – |
| YSVDACMMNGSVDKTVSFR | – | 0.122 ± 1.1 | – |
| YSVLTLED | – | 0.374 ± 0.29 | – |
| YTANLWYQAWMYSYCENPPT | – | inactive | – |
| YTAWMALKNGRLVSGFKAR | – | 0.009 ± 0.34 | – |
| YTFGTNWVCW | – | 3.6 ± 0.062 | – |
| YTFYLNF | – | 5.27 ± 0.053 | – |
| YTTQLGWWFFRGRTTLNKWV | – | 1.06 ± 0.61 | – |
| YTVYFSVGVVVE | – | -1.42 ± 0.49 | – |
| YVCLFEFVMVCCDFTLFCKV | – | 0.585 ± 0.8 | – |
| YVDTRLKTSVLFRK | – | 3.93 ± 0.043 | – |
| YVHMMSMKPHQLINCLRLFY | – | -1.2 ± 0.74 | – |
| YVLDFSNWIGDTADSIVAV | – | 0.145 ± 0.56 | – |
| YVLIVRYILGSSLRELAYGR | – | -0.38 ± 0.3 | – |
| YVLKLRRSRQSLSHRPALLY | – | inactive | – |
| YVLRYYALVLYFLICWYYAY | – | 0.215 ± 0.57 | – |
| YVRKVKA | – | 0.276 ± 1 | – |

| Substance | amyloid nucleation score [1] | amyloid nucleation score [2] | also measured |
| --- | --- | --- | --- |
| YVSFMGNSNMFVKLFLRGCI | – | 0.391 ± 0.2 | – |
| YVVKWPCGLTPCALPTPIRQ | – | 0.969 ± 0.21 | – |
| YVWSWVGQYCRVIAAHGIWW | – | 0.79 ± 0.26 | – |
| YWACDTFSILVLGNTVDSLD | – | inactive | – |
| YWELDCTGYEGGMIRREWEI | – | 0.586 ± 0.81 | – |
| YWFARCHFSPAMRIYYRTRA | – | -0.171 ± 0.62 | – |
| YWGGLCHLMSYRFTCIKYVG | – | -0.698 ± 0.64 | – |
| YWLNMWFYRSSASYRSMDMD | – | -0.713 ± 0.55 | – |
| YWSICPCCFLVSFSDTSWKG | – | 8.138 ± 0.057 | – |
| YWSVV | – | 3.73 ± 0.11 | – |
| YYFDPS | – | -0.961 ± 0.62 | – |
| YYIALWVVGHMGYIDGCTSC | – | 2.45 ± 0.1 | – |
| YYKKTVVPYRLYAGLELIAT | – | -0.607 ± 0.48 | – |
| YYLFGKF | – | -0.509 ± 1.1 | – |
| YYLGWIMLVHYGSWTTCLVR | – | 0.531 ± 0.64 | – |
| YYQVVTNNLSI | – | 0.129 ± 0.76 | – |
| YYRRNKIWSVSQQWGGIRSR | – | 0.596 ± 0.62 | – |
| YYSFPISIGWVSNCMFVWEV | – | 6.53 ± 0.073 | – |
| YYSPQSVKEYPRNTYRLIKA | – | -0.613 ± 0.45 | – |
| YYSVGNAGL | – | -1.3 ± 0.39 | – |
| YYTCTLSRWRQSAYLGGRLR | – | 0.284 ± 0.26 | – |
| YYTLWVTLTRLTNC | – | -0.288 ± 0.5 | – |
